Reference: the nanobody polyreactivity screen of Harvey et al. (2022)

Assay: yeast display, Sf9 membrane polyspecificity reagent, FACS + sequencing; frameworks hold sequencing errors
How it was run: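 Nanobodies from a synthetic yeast display library (Saccharomyces cerevisiae BJ5465), induced 36–48 hours with galactose, were stained 1 hour at 4 °C with 10% biotinylated, detergent-solubilized Sf9 membrane reagent, enriched on streptavidin microbeads, then FACS-sorted. Anti-HA (expression) and streptavidin (reagent binding) fluorescence set low and high (top ~1%) gates. Polyreactivity labels come from the gate of origin. Genes were colony-PCR amplified, MiSeq 2 × 250 sequenced and filtered by CDR length.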

Row | Sequence | polyreactivity (PSR sort gate)
1 | QVQLVESGGGLVQAGGSLRLSCAASGSIFKKYAMVWYRQAPGKERELVAAITRGTYYADSVKGRFTISRDNAKNTVYLQMNSLKPEDTAVYFCNREYWGRGYYRVRGEYDYWGQGTQVTVSS | low polyreactivity
2 | QVQLVESGGGLVQAGGSLRLSCAASGSIFKPYAMGWSRQAPGKERELVAAISRSGSTYYADSVKGRFTISRDNAKNTVYLQMNSLKPEDTAVYYCAKDVRPNYYAAFNYWGQGTQVTVSS | low polyreactivity
3 | QVQLVESGGGLVQAGGSLRLSCAASGSIFKPYAMGWYRQAPGKERELVAAISRSGSTYYADSVKGRFTISRDNAKNTVYLQMNSLKPEDTAVYYCAKDVRPNYYAAFNYWGQGTQVTVSS | low polyreactivity
4 | QVQLVESGGGLVQAGGSLRLSCAASGSIFKPYAMGWYRQAPGKERELVAAITRSGGSTYYADSVKGRFTISRDKAKNTVYLQMNSLKPEDTAVYYCAAGNAPYFRYGSKKYGYWGQGTQVTVSS | high polyreactivity
5 | QVQLVESGGGLVQAGGSLRLSCAASGSIFKPYAMGWYRQAPGKERELVARISWSTGRTYYADSVKGRFTISRDNAKNTVYLQMNSLKPEDTEVYDCDAAVAVRYGYWGQGTQVTVSS | high polyreactivity
6 | QVQLVESGGGLVQAGGSLRLSCAASGSIFKQYAMGWYRQAPGKERELVAAITWRGTGTYYADSVKGRFTISRDNAKNTVYLQMNSLKPEDTAVYYCAAKWYRRTYGYLPYTGIVNYDYWGQGTQVTVSS | high polyreactivity
7 | QVQLVESGGGLVQAGGSLRLSCAASGSIFKRNAMGWYRQAPGKERELVAAIRVNGGITYYADSVKGRFTISRDNAKNTVFLQMNSLKPEDTSVYYCAVYSRQGLGYWGQGTQVTVSS | high polyreactivity
8 | QVQLVESGGGLVQAGGSLRLSCAASGSIFKSNAMGWYRQAPGKERELVAAISNGGITNYADSVKGRFTISRDNAKNTVYLQMNSLKPEDTAVYYCATSDVREIWVDYWGQGTQVTVSS | low polyreactivity
9 | QVQLVESGGGLVQAGGSLRLSCAASGSIFKTYAMGWYRQAPGKERELVAAITSGVSTNYADSVKGRFTISRDNAKNTVYLQMNSLKPEDTAVYYCNVDTSSPSRRDYDYWGQGTQVTVSS | low polyreactivity
10 | QVQLVESGGGLVQAGGSLRLSCAASGSIFKVYAMGWYRQAPGKEREFVAAITSSDSNTNYADSVKGRFTISRDNAKNTDYLQMNSLKPEDTAVYYCNARIYTRRYVPHYGFNYWGQGTQVTVSS | low polyreactivity
11 | QVQLVESGGGLVQAGGSLRLSCAASGSIFKVYAMGWYRQAPGKEREFVAAITSSDSNTNYADSVKGRFTISRDNAKNTVYLQMNSLKPEDTAVYYCNARIYTRRYVPHYGFNYWGQGTQVTVSS | low polyreactivity
12 | QVQLVESGGGLVQAGGSLRLSCAASGSIFKYNDMGWYRQAPGKERELVAAITSDSSTYYADSVKGRFTISRDNAKNTVYLQMNSLKPVDTAVYYCAADTTGFTTYAYWYDYWGQGTQVTVSS | low polyreactivity
13 | QVQLVESGGGLVQAGGSLRLSCAASGSIFKYNTMGWYRQAPRKERELVAAINGGGSTYYADSVKGRFTISRDNAKNTVYLLMNSLKPEDTAVYYCNARQWYWESPDDYWGQGTQVTVSS | low polyreactivity
14 | QVQLVESGGGLVQAGGSLRLSCAASGSIFKYYAMGWYRQAPGKERELVAAISRSGSNTYYADSVKGRFTISRDNPKNTVYLQMNSLKPEDTAVYYCAAVKGPERPTSPYDYWGQGTQVTVSS | high polyreactivity
15 | QVQLVESGGGLVQAGGSLRLSCAASGSIFKYYAMGWYRQAPGKERELVAAISSGGITNYADSVKGRFTISRDNAKNTVYLQMNSLKPEDTAVYYCAARDYVRFGLYDYDYWGQGTQVTVSS | low polyreactivity
16 | QVQLVESGGGLVQAGGSLRLSCAASGSIFKYYAMGWYRQATGKERELVAAISSGGSTKYADSVKGRFTITRDNAKNTVYLQMNSLKPEDTAVYYCAARDPSRHARRAYDYWGQGTQVTVSS | low polyreactivity
17 | QVQLVESGGGLVQAGGSLRLSCAASGSIFLANAMGWYRQAPGKERELVAGISSSVTTNYADSVKGRFTISRDNAKNTVYLQMNSLKPEDTAVYYSNAVYGVYDFNYWVQGTQVTVSS | low polyreactivity
18 | QVQLVESGGGLVQAGGSLRLSCAASGSIFLDNAMGWYRQAPGKERELVAAISKSGTRTYYADSVKGRFTISRDNAKTTVYLQMNSLKPEDTAVFYCNVVPKQAKRVELIGYYYWGQGTQVTVSS | high polyreactivity
19 | QVQLVESGGGLVQAGGSLRLSCAASGSIFLDYAMGWYRQAPGKERELVATITSGSSTYADSVKGRFTISRDNAKNTVYLQMNSLKPEDTAVYYCNVKLIVRYWNPSPYDYWGQGTQVTVSS | low polyreactivity
20 | QVQLVESGGGLVQAGGSLRLSCAASGSIFLEYTMGWYSQAPGKECVLVAAITSGGSTKYADSVKGRFTISRDTAKNTVYLQMNILKPEDTAVYYCNARHYSREFDYWGQGTQVTVSS | low polyreactivity
21 | QVQLVESGGGLVQAGGSLRLSCAASGSIFLFNTMGWYRQAPGKERELVAVISRGGITYYADSVKGRFTISRDNAKNTVYLQMNSLKPEDTAVYYCAADGGYWSQYDYWGQGTQVTVSS | low polyreactivity

Row | Sequence | polyreactivity (PSR sort gate)
22 | QVQLVESGGGLVQAGGSLRLSCAASGSIFLGYAMGWYRQAPGKERELVAAITSGGSTNYADSVKGRFTISRDNAKNTVYLQMNSLKPEDTAVYYCAAKGEWSLVYTDYDYWGQGTQVTVSS | low polyreactivity
23 | QVQLVESGGGLVQAGGSLRLSCAASGSIFLGYTMGWYRQAPGKERELVAAINSSGGSTYYADSVKGRFTISRDNAKNTVYLQMNSLKAEDTAVYYCADANSILLFDSWGQGTQVTVSS | low polyreactivity
24 | QVQLVESGGGLVQAGGSLRLSCAASGSIFLIYAMGWYRQAPGKERELVAAIDWGGGANTYYADSVKGRFTISRDNAKNTVYLQMNSLKPEDTAVYYCAVDSYTSGYEYWGQGTQVTVSS | low polyreactivity
25 | QVQLVESGGGLVQAGGSLRLSCAASGSIFLIYAMGWYRQAPGKERELVAAISSGGSTYYADSVKGRFTISRDNAKNTVYLQMNSLKPEDTAVYYCAARYVERHTDYYYWGQGTQVTVSS | low polyreactivity
26 | QVQLVESGGGLVQAGGSLRLSCAASGSIFLIYAMGWYRQAPGKERELVATINRGDNTYYADSVKGRFTISRDNAKNTVYLQMNSLKPEDTAVYYCAADVPWGWWDSDFSDNYYWGQGTQVTVSS | low polyreactivity
27 | QVQLVESGGGLVQAGGSLRLSCAASGSIFLKYAMGWYRQAPGKERELVATISRGGSTNYADSVKGRFTISRDNAKNTVYLLMNSLKPEYTAVYYCAAKYGRPYGTYGYWGQGTQVTVSS | high polyreactivity
28 | QVQLVESGGGLVQAGGSLRLSCAASGSIFLNNAMGWYRQAPGKERELVAAITRNVGSTYYADSVKGRFTISRDNAKNTVYLQMNSLKPEDSAVYYCAADRRRRYDYWGQGTQVTVSS | low polyreactivity
29 | QVQLVESGGGLVQAGGSLRLSCAASGSIFLNYAMGWYRQAPGKERELVAGISNGGSTNYADSVKGRFTISRDNAKYTVYLQMNSLKPEDTAVFYCARPGYKSRGKRFDYWGQGTQVTVSS | low polyreactivity
30 | QVQLVESGGGLVQAGGSLRLSCAASGSIFLPYAMGWYRQAPGKERELVAAITRRGTSTYYADSVKGRFTISRDNAKNTVYLQMNSLKPEDTAVYYCAAEIKYWYSAYAYGYWGQGTQVTVSS | high polyreactivity
31 | QVQLVESGGGLVQAGGSLRLSCAASGSIFLPYAMVWSRQAPGTERELVAAITWGGDSTYADSVKGRFTISRDNAKNTVYLQMNSLKPEDTAVYYCAAGAGFESDYWGQGTQVTVSS | low polyreactivity
32 | QVQLVESGGGLVQAGGSLRLSCAASGSIFLRNAMGWYRQAPGKERELVAAITKRGGSTYYADSVKGRFTISRDNAKNTVYLQMNSLKPEDTAVYYCNVDTYANTAFVRKPMYYWGQGTQVTVSS | low polyreactivity
33 | QVQLVESGGGLVQAGGSLRLSCAASGSIFLSNAMGCYRQAPGKEREIVADIDWTGGDTYYADSVKGRFTISRDNAKNTVYLQMNSLKPEDTAVYYCAADYGYRNLLTEYSYWGQGTQVTVSS | low polyreactivity
34 | QVQLVESGGGLVQAGGSLRLSCAASGSIFLSNMGWYREAPGKQRELVAAITIGGSTDYADSVKGRFTISRDNAKNTVFLQMNSLKPEDTAVYYCNADNPYSDGADSLGNYWGHGTQVTVSS | low polyreactivity
35 | QVQLVESGGGLVQAGGSLRLSCAASGSIFLSYAMGWDRPAPGKVRELVADISRSGGSTYYADSVKGRFTISRDNAKNTVYLQMNSLKPEDTAVYYCAVYIAVYEGDYWGQGTQVTVSS | low polyreactivity
36 | QVQLVESGGGLVQAGGSLRLSCAASGSIFLSYDMGWYRQAPGKERELVAAITQSGGSTYYADSVKGRFTISRDNAKNTVYLQMNSLKPEDTAVYYCAKEGDSGYWFDYWGQGTQVTVSS | low polyreactivity
37 | QVQLVESGGGLVQAGGSLRLSCAASGSIFLTNAMGWYRQAPGKEREFVAAIDWGGTITYYADSVKGRFTISRDNAKNTVYLQMNSLKPEDTAVYYCAADPTYPYGYWGQGTQVTVSS | low polyreactivity
38 | QVQLVESGGGLVQAGGSLRLSCAASGSIFLVNAMGWYRQAPGKERELVAAITWIGGSTYYADSVKGRFTISRDNAKNTVYLQMNSLKPEDTAVYYCAAYGKRLGGGGYYWGQGTQVTVSS | high polyreactivity
39 | QVQLVESGGGLVQAGGSLRLSCAASGSIFLVNDKGWYRPAPGKERELVAAISSRGGSTYYADSVKGRFTISRDNAKNTVYLQMNSLKPEDTAVYYCAALQRPLEGLLYYYWGQGTPVTVSS | low polyreactivity
40 | QVQLVESGGGLVQAGGSLRLSCAASGSIFLVYAMGWYRQAPGKERELVAAIDWSDTDTYYADSVKGRFTISRDNAKNTFYLQMNSLKPEDTAVYYCAADHVGVDFEYWGQGTQVTVSS | low polyreactivity
41 | QVQLVESGGGLVQAGGSLRLSCAASGSIFLVYAMGWYRQAPGKERELVAAISRSGRTYADSVKGRFTISRDNAKNTVYLQMNSLKPEDTAVYYCNKLAVRPGYGSTYDYWGQGTQVTVSS | high polyreactivity
